What was measured:
[1] = target: BG505 SOSIP.v4.1 Env trimer produced in STT3A-KO HEK293T cells (HIV-1 strain BG505 (clade A)); test: native gel or EMSA
[2] = target: BG505 SOSIP.v4.1 Env trimer produced in STT3A-KO HEK293T cells (HIV-1 strain BG505 (clade A)); test: SEC; SEC of Ni-NTA-purified Env on a Superdex 200 10/300 GL column; trimer, dimer and monomer peaks
[3] = target: BG505 SOSIP.v4.1 Env trimer produced in STT3B-KO HEK293T cells (HIV-1 strain BG505 (clade A)); test: native gel or EMSA
[4] = target: BG505 SOSIP.v4.1 Env trimer produced in STT3B-KO HEK293T cells (HIV-1 strain BG505 (clade A)); test: SEC; SEC of Ni-NTA-purified Env on a Superdex 200 10/300 GL column; trimer, dimer and monomer peaks
[5] = target: BG505 SOSIP.v4.1 Env trimer produced in wild-type (WT) HEK293T cells (HIV-1 strain BG505 (clade A)); test: native gel or EMSA
[6] = target: BG505 SOSIP.v4.1 Env trimer produced in wild-type (WT) HEK293T cells (HIV-1 strain BG505 (clade A)); test: SEC; SEC of Ni-NTA-purified Env on a Superdex 200 10/300 GL column; trimer, dimer and monomer peaks

BG505 SOSIP.v4.1 Env trimer produced in STT3A-KO HEK293T cells (complex)
stoichiometry N [1]: 3
stoichiometry N [2]: 3

BG505 SOSIP.v4.1 Env trimer produced in STT3B-KO HEK293T cells (complex)
stoichiometry N [3]: 3
stoichiometry N [4]: 3

BG505 SOSIP.v4.1 Env trimer produced in wild-type (WT) HEK293T cells (complex)
stoichiometry N [5]: 3
stoichiometry N [6]: 3

Source: publication PMC13011424
